The values that follow come from patent US10253076B2, “Peptides and combination of peptides for use in immunotherapy against ovarian cancer and other cancers” (immatics biotechnologies GmbH, priority 2015, dated 2019).

The target of this assay is HLA-A*02:01 (Homo sapiens, UniProt P04439, D140Y/D185E/D98H/E176V/E277Q/G131W/G231S/I119V/I121R/I166T/I218V/L300P/L318F/N151K/N90K/P208A/P217A/Q86G/Q94H/R138H/R169H/T345S). The experiment in a line: MHC binding assay (UV-ligand exchange, beta2m ELISA, peptide exchange yield). The conditions noted are these: binding of HLA-class I restricted peptides to HLA-A*02:01, ranged by peptide exchange yield (UV-ligand exchange, β2m ELISA). The source says: Candidate peptides for T cell based therapies according to the present invention were further tested for their MHC binding capacity (affinity). The individual peptide-MHC complexes were produced by UV-ligand exchange, where a UV-sensitive peptide is cleaved upon UV-irradiation, and exchanged with the peptide of interest as analyzed. Only peptide candidates that can effectively bind and stabilize the peptide-receptive MHC molecules prevent dissociation of the MHC complexes. To determine the yield of the exchange reaction, an ELISA was performed based on the detection of the light chain (β2m) of stabilized MHC complexes. The assay was performed as generally described in Rodenko et al. (Rodenko et al., 2006).
96 well MAXISorp plates (NUNC) were coated over night with 2ug/ml streptavidin in PBS at room temperature, washed 4× and blocked for 1 h at 37° C. in 2% BSA containing blocking buffer. […] Peptide-MHC monomers of the UV-exchange reaction were diluted 100 fold in blocking buffer. Samples were incubated for 1 h at 37° C., washed four times, incubated with 2ug/ml HRP conjugated anti-82m for 1 h at 37° C., washed again and detected with TMB solution that is stopped with […]. Absorption was measured at 450 nm. Candidate peptides that show a high exchange yield (preferably higher than 50%, most preferred higher than 75%) are generally preferred for a generation and production of antibodies or fragments thereof, and/or T cell receptors or fragments thereof, as they show sufficient avidity to the MHC molecules and prevent dissociation of the MHC complexes.

For the substance “1 (SLMEPPAVLLL; listed as Homo sapiens) [compound 1]”, the Peptide exchange entry was “″+++″ (≥50% = +++)”.

In the case of “4 (GIMEHITKI; listed as Homo sapiens) [compound 4]”, the Peptide exchange entry is “″++++″ (≥75% = ++++)”.

For “5 (HLTEVYPEL; listed as Homo sapiens) [compound 5]”, the Peptide exchange result is recorded as “″+++″ (≥50% = +++)”.

Consider “6 (VLVSDGVHSV; listed as Homo sapiens) [compound 6]”, for which the Peptide exchange entry is “″+++″ (≥50% = +++)”.

On to “7 (SLVGLLLYL; listed as Homo sapiens) [compound 7]”, for which the Peptide exchange result is given as “″++++″ (≥75% = ++++)”.

On to “9 (GAAKDLPGV; listed as Homo sapiens) [compound 9]”, for which the Peptide exchange result is recorded as “″++″ (≥20% = ++)”.

Turning to “10 (FLATFPLAAV; listed as Homo sapiens) [compound 10]”, the Peptide exchange entry was “″++++″ (≥75% = ++++)”.

With “12 (SLWPDPMEV; listed as Homo sapiens) [compound 12]”, the Peptide exchange result is reported as “″+++″ (≥50% = +++)”.

With “13 (YLMDESLNL; listed as Homo sapiens) [compound 13]”, the Peptide exchange result is reported as “″+++″ (≥50% = +++)”.

Regarding “14 (AAYGGLNEKSFV; listed as Homo sapiens) [compound 14]”, the Peptide exchange result was “″+++″ (≥50% = +++)”.

Turning to “15 (VLLTFKIFL; listed as Homo sapiens) [compound 15]”, the Peptide exchange result is given as “″++″ (≥20% = ++)”.

With “16 (VLFQGQASL; listed as Homo sapiens) [compound 16]”, the Peptide exchange result was “″+++″ (≥50% = +++)”.

“17 (GLLPGDRLVSV; listed as Homo sapiens) [compound 17]”: the Peptide exchange result is given as “″+++″ (≥50% = +++)”.

Regarding “18 (YLVAKLVEV; listed as Homo sapiens) [compound 18]”, the Peptide exchange result was “″++″ (≥20% = ++)”.

Turning to “19 (FMVDNEAIYDI; listed as Homo sapiens) [compound 19]”, the Peptide exchange entry is recorded as “″++++″ (≥75% = ++++)”.

With “20 (RMIEYFIDV; listed as Homo sapiens) [compound 20]”, the Peptide exchange entry is reported as “″+++″ (≥50% = +++)”.

On to “21 (VLDELDMEL; listed as Homo sapiens) [compound 21]”, for which the Peptide exchange result is “″++″ (≥20% = ++)”.

Consider “22 (IMEENPGIFAV; listed as Homo sapiens) [compound 22]”, for which the Peptide exchange result is reported as “″+++″ (≥50% = +++)”.

Take “23 (VLLDDIFAQL; listed as Homo sapiens) [compound 23]”: the Peptide exchange result is “″+++″ (≥50% = +++)”.

“24 (SLSDGLEEV; listed as Homo sapiens) [compound 24]”: the Peptide exchange result is given as “″++″ (≥20% = ++)”.

In the case of “25 (FLPDEPYIKV; listed as Homo sapiens) [compound 25]”, the Peptide exchange entry is given as “″+++″ (≥50% = +++)”.

With “26 (ALLELAEEL; listed as Homo sapiens) [compound 26]”, the Peptide exchange entry is given as “″+++″ (≥50% = +++)”.

Regarding “27 (ILADIVISA; listed as Homo sapiens) [compound 27]”, the Peptide exchange entry was “″+++″ (≥50% = +++)”.

“28 (QLLDETSAITL; listed as Homo sapiens) [compound 28]”: the Peptide exchange result is “″+++″ (≥50% = +++)”.

In the case of “29 (KMLGIPISNILMV; listed as Homo sapiens) [compound 29]”, the Peptide exchange entry is recorded as “″+++″ (≥50% = +++)”.

With “30 (LILDWVPYI; listed as Homo sapiens) [compound 30]”, the Peptide exchange result was “″+++″ (≥50% = +++)”.

For the substance “31 (YLAPELFVNV; listed as Homo sapiens) [compound 31]”, the Peptide exchange entry is listed as “″++″ (≥20% = ++)”.

For the substance “32 (KLDDLTQDLTV; listed as Homo sapiens) [compound 32]”, the Peptide exchange entry is given as “″++″ (≥20% = ++)”.

As to “33 (VLLSLLEKV; listed as Homo sapiens) [compound 33]”, the Peptide exchange entry is “″++″ (≥20% = ++)”.

For the substance “34 (ILVEADSLWVV; listed as Homo sapiens) [compound 34]”, the Peptide exchange result is on record as “″+++″ (≥50% = +++)”.

“35 (KINDTIYEV; listed as Homo sapiens) [compound 35]”: the Peptide exchange result is “″+++″ (≥50% = +++)”.

Regarding “39 (SVAPNLPAV; listed as Homo sapiens) [compound 39]”, the Peptide exchange entry is given as “″+++″ (≥50% = +++)”.

Turning to “40 (TLLVKVFSV; listed as Homo sapiens) [compound 40]”, the Peptide exchange result is reported as “″+++″ (≥50% = +++)”.

With “41 (SLMPHIPGL; listed as Homo sapiens) [compound 41]”, the Peptide exchange entry is reported as “″+++″ (≥50% = +++)”.

As to “42 (VLLQKIVSA; listed as Homo sapiens) [compound 42]”, the Peptide exchange entry is recorded as “″+++″ (≥50% = +++)”.

For “43 (VLSSLEINI; listed as Homo sapiens) [compound 43]”, the Peptide exchange result is given as “″++″ (≥20% = ++)”.

In the case of “44 (ILDPISSGFLL; listed as Homo sapiens) [compound 44]”, the Peptide exchange entry was “″++″ (≥20% = ++)”.

As to “45 (SLWQDIPDV; listed as Homo sapiens) [compound 45]”, the Peptide exchange entry was “″+++″ (≥50% = +++)”.

With “46 (ILTEENIHL; listed as Homo sapiens) [compound 46]”, the Peptide exchange entry is “″+++″ (≥50% = +++)”.

In the case of “47 (ILLSVPLLVV; listed as Homo sapiens) [compound 47]”, the Peptide exchange entry is “″++″ (≥20% = ++)”.

As to “49 (YLPAVFEEV; listed as Homo sapiens) [compound 49]”, the Peptide exchange entry is recorded as “″+++″ (≥50% = +++)”.

As for “50 (SLSELEALM; listed as Homo sapiens) [compound 50]”, the Peptide exchange result is “″+++″ (≥50% = +++)”.

As to “51 (LLPDLEFYV; listed as Homo sapiens) [compound 51]”, the Peptide exchange entry is recorded as “″++++″ (≥75% = ++++)”.

As for “52 (FLLAHGLGFLL; listed as Homo sapiens) [compound 52]”, the Peptide exchange entry is on record as “″++++″ (≥75% = ++++)”.

With “53 (KMIETDILQKV; listed as Homo sapiens) [compound 53]”, the Peptide exchange result is listed as “″++++″ (≥75% = ++++)”.

On to “54 (SLLEQGKEPWMV; listed as Homo sapiens) [compound 54]”, for which the Peptide exchange result is “″+++″ (≥50% = +++)”.

“55 (SLLDLETLSL; listed as Homo sapiens) [compound 55]”: the Peptide exchange result is given as “″++++″ (≥75% = ++++)”.

Take “57 (TLAELQPPVQL; listed as Homo sapiens) [compound 57]”: the Peptide exchange result is reported as “″+++″ (≥50% = +++)”.

“59 (IMEDIILTL; listed as Homo sapiens) [compound 59]”: the Peptide exchange result is given as “″+++″ (≥50% = +++)”.

In the case of “61 (FLQGYQLHL; listed as Homo sapiens) [compound 61]”, the Peptide exchange result is recorded as “″++++″ (≥75% = ++++)”.

For the substance “62 (VLLDVSAGQLLM; listed as Homo sapiens) [compound 62]”, the Peptide exchange entry was “″++++″ (≥75% = ++++)”.

Consider “63 (YLLPSGGSVTL; listed as Homo sapiens) [compound 63]”, for which the Peptide exchange entry was “″++″ (≥20% = ++)”.

On to “64 (YAAPGGLIGV; listed as Homo sapiens) [compound 64]”, for which the Peptide exchange result was “″++″ (≥20% = ++)”.

Turning to “66 (FLDENIGGVAV; listed as Homo sapiens) [compound 66]”, the Peptide exchange entry is listed as “″+++″ (≥50% = +++)”.

For “67 (TLLAEALVTV; listed as Homo sapiens) [compound 67]”, the Peptide exchange result is “″+++″ (≥50% = +++)”.

As for “68 (SLMELPRGLFL; listed as Homo sapiens) [compound 68]”, the Peptide exchange entry is on record as “″++++″ (≥75% = ++++)”.

Turning to “69 (FQLDPSSGVLVTV; listed as Homo sapiens) [compound 69]”, the Peptide exchange entry is given as “″+++″ (≥50% = +++)”.

On to “70 (GLLDYPVGV; listed as Homo sapiens) [compound 70]”, for which the Peptide exchange entry is “″+++″ (≥50% = +++)”.

As to “71 (GILARIASV; listed as Homo sapiens) [compound 71]”, the Peptide exchange result is reported as “″+++″ (≥50% = +++)”.

“72 (SLLELDGINL; listed as Homo sapiens) [compound 72]”: the Peptide exchange entry is given as “″+++″ (≥50% = +++)”.

In the case of “73 (NIFDLQIYV; listed as Homo sapiens) [compound 73]”, the Peptide exchange result is listed as “″+++″ (≥50% = +++)”.

Take “74 (ALLDPEVLSIFV; listed as Homo sapiens) [compound 74]”: the Peptide exchange entry was “″+++″ (≥50% = +++)”.

For “75 (GLLEVMVNL; listed as Homo sapiens) [compound 75]”, the Peptide exchange entry was “″+++″ (≥50% = +++)”.

Take “76 (ILIDSIYKV; listed as Homo sapiens) [compound 76]”: the Peptide exchange result is “″+++″ (≥50% = +++)”.

On to “77 (ILVEADGAWVV; listed as Homo sapiens) [compound 77]”, for which the Peptide exchange entry is listed as “″++++″ (≥75% = ++++)”.

With “78 (SLFSSLEPQIQPV; listed as Homo sapiens) [compound 78]”, the Peptide exchange result was “″+++″ (≥50% = +++)”.
